B1: CPEB3 Ribozyme (parent)
chain: UAACAGGGGGCCACAGCAGAAGCGUUCACGUCGCAGCCCCUGUCAGAUUCUGGUGAAUCUGCGAAUUCUGCUGUAUAUCUC

Variants of: B1
Assay: self-cleavage, relative activity (ratio to wild type); higher = more cleavage; in vitro, sequencing
Method in brief: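 After error-prone PCR and barcoding, CPEB3 ribozyme mutant libraries were transcribed with T7 RNA polymerase at 37°C for 5 hours, then given 15 min with DNase I before an EDTA stop, and they cleaved during both steps. Reverse transcription with template switching preceded Illumina sequencing. Relative activity divides a variant's cleaved/total read fraction by the unmutated ribozyme's. At least 5 reads were required per variant, and three batches were averaged.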

Compared with A57U U76A, A57U U76C is lower in self-cleavage: 1.01 for the first, 0.94 for the second.

Going from C59U U72C to C59U U72A, the self-cleavage falls from 1.14 to 0.4.

First: U58A A64G
Second: U60A C81G
The self-cleavage of the first is lower: 0.32 for the first, 0.93 for the second.

Going from U60A C81U to U60G U66C, the self-cleavage falls from 0.76 to 0.15.

Compared with U60G U66G, A57G U69A is higher in self-cleavage: 0.24 for the first, 0.54 for the second.

Compared with A57G U69G, A57G U69C is lower in self-cleavage: 0.72 for the first, 0.48 for the second.

Going from C59A C68A to C59A A75U, the self-cleavage falls from 0.19 to 0.13.

Going from C59A A75G to U60A U72A, the self-cleavage rises from 0.16 to 0.54.

Compared with U60A U72G, U60A U72C is higher in self-cleavage: 0.61 for the first, 0.64 for the second.

Going from U58C U66C to U58C U66G, the self-cleavage falls from 0.28 to 0.23.

Going from U60C A77U to U60C A77G, the self-cleavage falls from 0.55 to 0.51.

Compared with C59A U74G, C59A U74C is lower in self-cleavage: 0.74 for the first, 0.5 for the second.

Compared with U60C C81A, U60C C81U is higher in self-cleavage: 0.37 for the first, 0.74 for the second.

First: U60A U80A
Second: U60A U80G
The self-cleavage of the first is lower: 0.59 for the first, 0.84 for the second.

Going from U60A U80C to U58A U76A, the self-cleavage falls from 0.63 to 0.49.

Compared with U58C C62A, U58C C62G is lower in self-cleavage: 0.36 for the first, 0.27 for the second.

Going from U58C C62U to U58A A75G, the self-cleavage rises from 0.22 to 0.46.

Going from U58A A75U to U60A A77U, the self-cleavage rises from 0.29 to 0.52.

Going from U60A A77G to U58C U72G, the self-cleavage falls from 0.56 to 0.55.

Going from U58C U72A to U58C U72C, the self-cleavage rises from 0.39 to 0.59.

Compared with U58G U74A, U58A U72G is higher in self-cleavage: 0.31 for the first, 0.42 for the second.

Going from U58A U72A to U58A U72C, the self-cleavage rises from 0.38 to 0.43.

Compared with U60G G70A, U60C U67G is lower in self-cleavage: 0.21 for the first, 0.2 for the second.

Going from U60C U67C to U60C U67A, the self-cleavage falls from 0.35 to 0.3.

First: U58A A65G
Second: U58A A65U
The self-cleavage of the first is higher: 0.17 for the first, 0.13 for the second.

Going from U60A A75U to U60A A75G, the self-cleavage falls from 0.62 to 0.46.

Going from C59A U72C to C59A U72A, the self-cleavage falls from 0.34 to 0.13.

Going from U58A U80A to U58A U80C, the self-cleavage falls from 0.5 to 0.46.

First: C59G
Second: C59U
The self-cleavage of the first is lower: 0.32 for the first, 0.95 for the second.

Going from C59A to C59A A77G, the self-cleavage falls from 0.37 to 0.31.

Compared with C59U C62U, C59U U60A is higher in self-cleavage: 0.16 for the first, 0.28 for the second.

Compared with C59U U60C, U60G A64U is lower in self-cleavage: 0.34 for the first, 0.21 for the second.

First: U60G A64G
Second: C59A U60A
The self-cleavage of the first is higher: 0.42 for the first, 0.31 for the second.

Going from C59A U60C to U60A U69C, the self-cleavage rises from 0.19 to 0.34.

Going from U60A U69G to U60A U69A, the self-cleavage rises from 0.25 to 0.33.

Compared with C59U U74A, C59U U74C is lower in self-cleavage: 1.6 for the first, 1.1 for the second.

Compared with U58G U78C, U58G U78A is higher in self-cleavage: 0.34 for the first, 0.4 for the second.

Going from U58C U69C to U58C U69A, the self-cleavage rises from 0.27 to 0.3.

Going from U58C U69G to A57U C62U, the self-cleavage rises from 0.15 to 0.21.

Going from C59A A65U to C59A A65G, the self-cleavage rises from 0.05 to 0.13.

First: U60C C62A
Second: U60C C62U
The self-cleavage of the first is lower: 0.19 for the first, 0.33 for the second.

Compared with C59A U80G, C59A U80C is higher in self-cleavage: 0.33 for the first, 0.38 for the second.

Going from U60G A65G to U60A U76A, the self-cleavage rises from 0.24 to 0.61.

First: U60A U76C
Second: U58A U66C
The self-cleavage of the first is higher: 0.56 for the first, 0.29 for the second.

Going from C59U A75G to U60C U69A, the self-cleavage falls from 0.81 to 0.35.

First: U60C U69G
Second: U60C U69C
The self-cleavage of the first is higher: 0.39 for the first, 0.37 for the second.

Compared with U58A U60G, U58A U60C is higher in self-cleavage: 0.17 for the first, 0.23 for the second.

Going from U58A U60A to A57G U67A, the self-cleavage rises from 0.17 to 0.45.

Compared with A57G U67C, A57G U67G is higher in self-cleavage: 0.35 for the first, 0.38 for the second.

Compared with C59G U69C, U60C G70A is higher in self-cleavage: 0.2 for the first, 0.48 for the second.

Compared with U60C G70U, U60C G70C is lower in self-cleavage: 0.44 for the first, 0.27 for the second.

Compared with U60C C79U, U60C C79A is higher in self-cleavage: 0.72 for the first, 0.93 for the second.

Going from U60C C79G to U60A U74A, the self-cleavage falls from 0.81 to 0.75.

First: U60A U74C
Second: U60A U74G
The self-cleavage of the first is higher: 1.04 for the first, 0.91 for the second.

Compared with U58A C59A, A57G U74G is higher in self-cleavage: 0.25 for the first, 1.23 for the second.

First: A57G U74C
Second: A57G U74A
The self-cleavage of the first is lower: 1.15 for the first, 1.2 for the second.

First: U58A
Second: U58C
The self-cleavage of the first is lower: 0.41 for the first, 0.56 for the second.

First: U58G
Second: U58C U80C
The self-cleavage of the first is lower: 0.34 for the first, 0.57 for the second.

Going from U58C U80G to U58C U80A, the self-cleavage rises from 0.67 to 0.91.

Going from A57U to U60A U78G, the self-cleavage falls from 0.8 to 0.38.

Going from U60A U78A to U60A U78C, the self-cleavage falls from 0.72 to 0.44.

Going from U58C C59U to U58A C68U, the self-cleavage rises from 0.21 to 0.23.

Compared with C59A G73U, C59U U78C is lower in self-cleavage: 1.11 for the first, 0.94 for the second.

Going from C59U U78A to U60C C71U, the self-cleavage falls from 1.17 to 0.3.

First: U60C C71A
Second: U58A G70C
The self-cleavage of the first is higher: 0.25 for the first, 0.14 for the second.

Compared with A57U U74C, A57U U74A is higher in self-cleavage: 1.03 for the first, 1.23 for the second.

Compared with A57U U80A, A57U U80C is higher in self-cleavage: 0.55 for the first, 0.92 for the second.

Compared with U58A U67A, U58A U67C is lower in self-cleavage: 0.32 for the first, 0.31 for the second.

Going from U60A A64C to U60A A64U, the self-cleavage rises from 0.13 to 0.33.

Compared with U60A A64G, C59G U66C is lower in self-cleavage: 0.43 for the first, 0.19 for the second.

First: C59A A64G
Second: C59G C71A
The self-cleavage of the first is lower: 0.2 for the first, 0.24 for the second.

First: U58G G70A
Second: U58A G73A
The self-cleavage of the first is lower: 0.19 for the first, 1.1 for the second.

First: C59A U76A
Second: C59A U76G
The self-cleavage of the first is higher: 0.43 for the first, 0.33 for the second.

Compared with A57U A75U, A57U A75G is lower in self-cleavage: 1.08 for the first, 0.69 for the second.

Going from U58C A75U to U58C A75G, the self-cleavage falls from 0.7 to 0.46.

Going from C59A U69C to C59A U69A, the self-cleavage falls from 0.23 to 0.18.

First: C59G U74A
Second: U60A G73A
The self-cleavage of the first is lower: 0.37 for the first, 1.16 for the second.

First: U60C U76G
Second: U60C U76A
The self-cleavage of the first is lower: 0.51 for the first, 0.58 for the second.

Compared with U60C U76C, C59G U78C is lower in self-cleavage: 0.51 for the first, 0.27 for the second.

Going from U58A A77C to U58A A77G, the self-cleavage rises from 0.33 to 0.38.

Going from U58A A77U to U58G A64U, the self-cleavage falls from 0.43 to 0.17.

Going from U60C U80G to U60C U80C, the self-cleavage rises from 0.44 to 0.57.

Compared with U60C U80A, A57U U66C is lower in self-cleavage: 0.61 for the first, 0.33 for the second.

U58G U66C showed a self-cleavage of 0.27.

Source: the RNAGym collection of RNA variant scans (doi:10.1093/nar/gkz1192)
